In US20200353049A1:

Experiments:
[1] = target: IL-22R1a extracellular domain (ECD) (UniProt Q8N6P7); test: potency assay (binding ELISA on plate-coated IL-22R1a ECD), relative to reference standard; 40 C stress, day 5
[2] = target: IL-22R1a extracellular domain (ECD) (UniProt Q8N6P7); test: binding ELISA on plate-coated IL-22R1a ECD, relative to Reference Standard (100%); stored 5 C, 6 months
[3] = target: IL-22R1a extracellular domain (ECD) (UniProt Q8N6P7); test: as above; remark: listed apart in the source
[4] = target: IL-22R1a extracellular domain (ECD) (UniProt Q8N6P7); test: binding ELISA on plate-coated IL-22R1a ECD, relative to Reference Standard (100%); stored -20 C, 6 months
[5] = target: IL-22R1a extracellular domain (ECD) (UniProt Q8N6P7); test: binding ELISA on plate-coated IL-22R1a ECD, relative to Reference Standard; pH 7.0 formulation stored 1 week at 40 C
[6] = target: IL-22R1a extracellular domain (ECD) (UniProt Q8N6P7); test: binding ELISA on plate-coated IL-22R1a ECD, relative to Reference Standard (100%); stored -20 C, 9 months
[7] = target: IL-22R1a extracellular domain (ECD) (UniProt Q8N6P7); test: potency assay (binding ELISA on plate-coated IL-22R1a ECD), relative to reference standard (100%); T=0
[8] = target: IL-22R1a extracellular domain (ECD) (UniProt Q8N6P7); test: binding ELISA on plate-coated IL-22R1a ECD, relative to Reference Standard (100%); stored 5 C, 3 months
[9] = target: IL-22R1a extracellular domain (ECD) (UniProt Q8N6P7); test: binding ELISA on plate-coated IL-22R1a ECD, relative to Reference Standard (100%); stored 5 C, 1 month
[10] = target: IL-22R1a extracellular domain (ECD) (UniProt Q8N6P7); test: potency assay (binding ELISA on plate-coated IL-22R1a ECD), relative to reference standard (100%); stored 5 C, 36 months
[11] = target: IL-22R1a extracellular domain (ECD) (UniProt Q8N6P7); test: binding ELISA on plate-coated IL-22R1a ECD, relative to Reference Standard (100%); stored -20 C, 36 months
[12] = target: IL-22R1a extracellular domain (ECD) (UniProt Q8N6P7); test: potency assay (binding ELISA on plate-coated IL-22R1a ECD), relative to reference standard (100%); stored 25 C, 6 months
[13] = target: IL-22R1a extracellular domain (ECD) (UniProt Q8N6P7); test: potency assay (binding ELISA on plate-coated IL-22R1a ECD), relative to reference standard (100%); stored 5 C, 48 months
[14] = target: IL-22R1a extracellular domain (ECD) (UniProt Q8N6P7); test: potency assay (binding ELISA on plate-coated IL-22R1a ECD); change after 6 months at 25 C (supportive stability study)
[15] = target: IL-22R1a extracellular domain (ECD) (UniProt Q8N6P7); test: binding ELISA on plate-coated IL-22R1a ECD, relative to Reference Standard (100%); stored -20 C, 24 months
[16] = target: IL-22R1a extracellular domain (ECD) (UniProt Q8N6P7); test: potency assay (binding ELISA on plate-coated IL-22R1a ECD), relative to reference standard (100%); stored 5 C, 12 months
[17] = target: IL-22R1a extracellular domain (ECD) (UniProt Q8N6P7); test: binding ELISA on plate-coated IL-22R1a ECD, relative to Reference Standard (100%); stored 5 C, 2 months
[18] = target: IL-22R1a extracellular domain (ECD) (UniProt Q8N6P7); test: potency assay (binding ELISA on plate-coated IL-22R1a ECD), relative to reference standard (100%); stored 25 C, 2 months
[19] = target: IL-22R1a extracellular domain (ECD) (UniProt Q8N6P7); test: binding ELISA on plate-coated IL-22R1a ECD, relative to Reference Standard (100%); stored -20 C, 48 months
[20] = target: IL-22R1a extracellular domain (ECD) (UniProt Q8N6P7); test: binding ELISA on plate-coated IL-22R1a ECD, relative to Reference Standard (100%); stored -20 C, 60 months
[21] = target: IL-22R1a extracellular domain (ECD) (UniProt Q8N6P7); test: potency assay (binding ELISA on plate-coated IL-22R1a ECD), relative to reference standard (100%); stored 5 C, 24 months
[22] = target: IL-22R1a extracellular domain (ECD) (UniProt Q8N6P7); test: potency assay (binding ELISA on plate-coated IL-22R1a ECD), relative to reference standard (100%); stored 5 C, 18 months
[23] = target: IL-22R1a extracellular domain (ECD) (UniProt Q8N6P7); test: potency assay (binding ELISA on plate-coated IL-22R1a ECD), relative to reference standard (100%); stored 5 C, 6 months
[24] = target: IL-22R1a extracellular domain (ECD) (UniProt Q8N6P7); test: binding ELISA on plate-coated IL-22R1a ECD, relative to Reference Standard (100%); stored -20 C, 6 months; remark: listed apart in the source
[25] = target: IL-22R1a extracellular domain (ECD) (UniProt Q8N6P7); test: potency assay (binding ELISA on plate-coated IL-22R1a ECD), relative to reference standard (100%); stored 5 C, 18 months; remark: listed apart in the source
[26] = target: IL-22R1a extracellular domain (ECD) (UniProt Q8N6P7); test: potency assay (binding ELISA on plate-coated IL-22R1a ECD); change after 2 weeks at 40 C; this end matches Reference Standard Batch in Table 26 (104 to 71)
[27] = target: IL-22R1a extracellular domain (ECD) (UniProt Q8N6P7); test: binding ELISA on plate-coated IL-22R1a ECD, relative to Reference Standard (100%); stored -20 C, 36 months; remark: listed apart in the source
[28] = target: IL-22R1a extracellular domain (ECD) (UniProt Q8N6P7); test: potency assay (binding ELISA on plate-coated IL-22R1a ECD), relative to reference standard (100%); stored 5 C, 3 months

Sequence of UniProt Q8N6P7 (Q8N6P7 16-228 limits assumed): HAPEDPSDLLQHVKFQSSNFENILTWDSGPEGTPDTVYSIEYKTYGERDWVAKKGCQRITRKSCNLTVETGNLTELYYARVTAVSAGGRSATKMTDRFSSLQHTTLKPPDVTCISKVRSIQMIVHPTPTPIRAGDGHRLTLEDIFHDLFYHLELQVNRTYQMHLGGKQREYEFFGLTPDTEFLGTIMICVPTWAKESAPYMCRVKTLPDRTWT

Potency (% relative potency) (% relative potency) [1]: 80
Potency by Binding Assay (% relative potency) (% relative potency) [2]: 71
Potency by Binding Assay (% relative potency) (% relative potency) [3]: 98
Potency by Binding Assay (% relative potency) (% relative potency) [4]: 73
Estimated % relative potency (n = 2) (% relative potency) [5]: 81
Potency by Binding Assay (% relative potency) (% relative potency) [6]: 68
Potency (% relative potency) (% relative potency) [7]: 101
Potency by Binding Assay (% relative potency) (% relative potency) [8]: 73
Potency by Binding Assay (% relative potency) (% relative potency) [9]: 73
Potency (% relative potency) (% relative potency) [10]: 99
Potency by Binding Assay (% relative potency) (% relative potency) [11]: 71
Potency (% relative potency) (% relative potency) [12]: 72
Potency (% relative potency) (% relative potency) [13]: 65
loss of % relative potency (% relative potency) [14]: 29
Potency by Binding Assay (% relative potency) (% relative potency) [15]: 97
Potency (% relative potency) (% relative potency) [16]: 67
Potency by Binding Assay (% relative potency) (% relative potency) [17]: 75
Potency (% relative potency) (% relative potency) [18]: 60
Potency by Binding Assay (% relative potency) (% relative potency) [19]: 72
Potency by Binding Assay (% relative potency) (% relative potency) [20]: 99
Potency (% relative potency) (% relative potency) [21]: 66
Potency (% relative potency) (% relative potency) [22]: 93
Potency (% relative potency) (% relative potency) [23]: 100
Potency by Binding Assay (% relative potency) (% relative potency) [24]: 112
Potency (% relative potency) (% relative potency) [25]: 64
decrease in % relative potency (% relative potency) [26]: 33
Potency by Binding Assay (% relative potency) (% relative potency) [27]: 107
Potency (% relative potency) (% relative potency) [28]: 104
Substance: IL-22 Fc fusion protein
